The values that follow come from article PMC6774396 (Frontiers in Immunology, 2019).

For assay [1], the system named is THP-1 cells over TNF-α-activated HUVEC. Kind of assay: Pseudopod protrusion scoring in TEM under flow. It is filed as cell-based, human. On the procedure:
(A) The number of protrusions formed over this period was scored as: zero, one, two, or >2. (B) The percentages of cells bearing these protrusions were scored at specific time points: 6 min (blue bars), 15 min (green bars), or 25 min (red bars). Supplementary Videos 2, 3, 4 provide examples of cells producing a range of protrusions as TEM proceeds. Data represent SEM of 3 fields of view per flow experiment, conducted on three separate occasions, and at least 180 cells analyzed per group. Values of the vertical lines indicate the differences in protrusion number (specifically “zero” and “two”) corresponding to each of the cell lines, for which statistical significance is shown in Table 1.
All flow experiments were performed using a 35 mm diameter Glycotech parallel plate flow chamber. Perfusion experiments were performed at 1.5 dyn/cm^2 using a Harvard Apparatus 2000 PHD syringe pump. Perfusion media consisted of: RPMI supplemented with L-glutamine, 10% FCS, 1% penicillin/streptomycin, 50 μM β-mercaptoethanol, and 25 mM HEPES. Human Umbilical Vein Endothelial Cells (HUVEC–Lonza) were seeded onto 35 mm diameter glass coverslips (no. 1 thickness; VWR) that were pre-coated with 10 μg/mL fibronectin (37°C for at least 1 h). Before each perfusion assay, HUVEC were stimulated overnight (16 h) with 10 ng/mL carrier-free recombinant human TNF-α (R&D Systems). Each perfusion assay was performed by injecting a bolus of cells for 6 min, followed by just perfusion media (without cells) for the […]. THP-1 cells were perfused at a density of 0.5 ×10^6 cells per mL. THP-1 cells treated with 10 μM TAPI-0 required a preincubation time of 10 min at 37°C before perfusion over TNF-α-activated HUVEC. Note that 10 μM TAPI-0 was also supplemented in the perfusate. Stills were acquired once every 10 seconds using 10 × objective lens.

The test system of a further assay is calmodulin. The following applies: transmigrating pseudopods; ref previously published (no number given at b28; b24 cites ref 8); cited from earlier work.

B1: S367A: L-selectin with Ser^367 mutated to alanine, GFP-tagged, expressed in THP-1 cells (protein, UniProt P14151 39-372, looked up, variant S367A)
L-selectin: WTYHYSEKPMNWQRARRFCRDNYTDLVAIQNKAEIEYLEKTLPFSRSYYWIGIRKIGGIWTWVGTNKSLTEEAENWGDGEPNNKKNKEDCVEIYIKRNKDAGKWNDDACHKLKAALCYTASCQPWSCSGHGECVEIINNYTCNCDVGYYGPQCQFVIQCEPLEAPELGTMDCTHPLGNFSFSSQCAFSCSEGTNLTGIEETTCGPFGNWSSPEPTCQVIQCEPLSAPDLGIMNCSHPLASFSFTSACTFICSEGTELIGKKKTICESSGIWSNPSPICQKLDKSFSMIKEGDYNPLFIPVAVMVTAFSGLAFIIWLARRLKKGKKSKRAMNDPY
modifications: C-terminal GFP tag
Regarding B1, the “protrusive activity profile in TEM (in words)” value in assay [1] (6, 15 and 25 min of flow over TNF-α-activated HUVEC) was “possessed the fewest protrusions over the recorded period, differing significantly from WT and S364A L-selectin-expressing cell lines”. Moreover, the “cells with 2 protrusions” value in assay [1] (15 min time point, mean of 3 fields of view per flow experiment, three occasions, at least 180 cells per group, significance ** S367A p ≤ 0.01 (Tukey), % printed) came to 13.7%. Also, the “cells with 0 protrusions” value in assay [1] (15 min time point, mean of 3 fields of view per flow experiment, three occasions, at least 180 cells per group, significance *** S367A p ≤ 0.001, ** SSAA p ≤ 0.01 (Tukey), % printed) worked out at 34.4%. Besides, the “interaction of calmodulin with L-selectin” value in the assay with calmodulin is reported as “significantly reduced interaction of calmodulin”.
